Test results as given in patent US9328334B2, “Luciferase derived from lucidina accensa” (OLYMPUS CORPORATION, priority 2011, dated 2016).
“Also recorded” adds a separate entry of the source.

Columns and labels:
HeLa cell = experiment: Luminescence intensity of luciferase expressed in HeLa cell, comparison with P. pyralis luciferase (Example 3); type: cell-based; details: 2 mM D-luciferin, 25° C., 90 min after starting measurement
Method: Each of the wild type luciferase derived from L. accensa, the mutant luciferase derived from L. accensa (N50D and 1530R), and the luciferase derived from P. pyralis (SEQ ID NO: 33) was expressed in a HeLa cell, and the luminescence intensity was measured and compared to each other.
Further, since the pF9A vector contains the luciferase gene derived from Renilla reniformis as an internal control, it is possible to obtain the luminescence intensity from the luminescent gene inserted to the multicloning site as a ratio compared to the luminescence intensity emitted by the Renilla luciferase.
Three types of plasmids obtained in such a manner described above were each subjected to gene transfection to a HeLa cell, which has been inoculated in a 24-well plate, by a lipofection method, and 24 hours later, the cells were washed with PBS. To each well of a 24-well plate, 500 μL of 2 mM D-luciferin/CO2 Independent Medium (manufactured by Invitrogen) was added and the luminescence intensity was measured for 90 min by using a Luminescensor (manufactured by ATTO Corporation) under the condition including 25° C. and 1 sec per each well. The luminescence intensity which is obtained at the time point of 90 min after starting the measurement was taken as the luminescence intensity of the wild type luciferase, the mutant luciferase, and P. pyralis luciferase. […] Subsequently, 500 μL of 10 μM coelenterazine/CO2 Independent Medium was added to each well and the luminescence intensity was measured for 30 min by using a Luminescensor under the condition including 25° C. and 1 sec per each well. The luminescence intensity obtained at five minutes after the addition of coelenterazine was taken as luminescence intensity of the Renilla luciferase, which is an internal control. Each of the luminescence intensity from the wild type luciferase, the mutant luciferase, and P. pyralis luciferase was divided by the luminescence intensity of the Renilla luciferase, and the results are illustrated as a graph illustrating the luminescence intensity of each luciferase.

[1] = Stability against degradation: SDS-polyacrylamide gel electrophoresis of lysate of E. coli expressing each luciferase (Example 4); details: lysate of E. coli BL21 (DE3) CodonPlus expressing the luciferase
Method: Stability against degradation was determined for the wild type luciferase derived from L. accensa in comparison with a known luciferase derived from L. biplagiata.
The above three genes were introduced into an expression vector and expressed in E. coli. The expression was carried out in the same manner as the Example 2 except that BL21 (DE3) CodonPlus (manufactured by Stratagene Corporation) was used as E. coli strain and the cells were cultured appropriately.
The lysate was prepared from the E. coli expressing each gene, and then subjected to SDS-polyacrylamide gel electrophoresis. It was confirmed that, as a band with the biggest size, a single band is present near 70 kDa for all three kinds of protein. […] Meanwhile, in the luciferase derived from L. biplagiata (i.e., left and right lanes), several bands with a size smaller than 70 kDa were identified.

HeLa cells = experiment: Luminescence intensity of luciferase expressed in HeLa cells, comparison with L. biplagiata luciferase (Example 5); type: cell-based; details: 2 mM D-luciferin, 37° C., 90 min
Description: The luminescence intensity from the light emitting reaction using the wild type luciferase derived from L. accensa (SEQ ID NO: 1) was compared to the luminescence intensity from the light emitting reaction using the luciferase derived from L. biplagiata having the literature sequence (SEQ ID NO: 30) or the luciferase derived from L. biplagiata having the cloned sequence (SEQ ID NO: 31). Further, based on the difference between the literature sequence and the cloned sequence, the amino acid residue at position 249 of the amino acid sequence of the wild type luciferase, i.e., methionine, was changed to lysine to prepare the mutant luciferase (M249K), which was then used for the intensity measurement.
With regard to the four types of the luciferase, a nucleic acid containing a gene optimized for mammalian cell expression was given with a Kozak sequence, and then inserted between SgfI and PmeI sites within the multicloning site of pF9A CMV hRLuc neo Flexi vector (manufactured by Promega). Further, since the pF9A vector contains the luciferase gene derived from Renilla reniformis as an internal control in the vector sequence, it is possible to obtain the luminescence intensity from the luminescent gene inserted to the multicloning site as a ratio compared to the luminescence intensity emitted by the Renilla luciferase.
Four types of luciferase plasmids obtained in such a manner described above were each subjected to gene transfection to HeLa cells inoculated in a 48-well plate by a lipofection method, and 24 hours later, the cells were washed with PBS. To each well of a 48-well plate, 500 μL of 2 mM D-luciferin/CO2 Independent Medium (manufactured by Invitrogen) was added and the luminescence intensity was measured for 90 min by using a Luminescensor (manufactured by ATTO Corporation) under the condition including 37° C. and 1 sec per each well. The luminescence intensity which is obtained at the time point of 90 min after starting the measurement was taken as the luminescence intensity of each luciferase. […] Subsequently, 500 μL of 10 μM coelenterazine/CO2 Independent Medium was added to each well and the luminescence intensity was measured for 30 min by using a Luminescensor under the condition including 37° C. and 1 sec per each well. The luminescence intensity obtained at five minutes after the addition of coelenterazine was taken as luminescence intensity of the Renilla luciferase, which is an internal control. Each of the luminescence intensities from the luciferases was divided by the luminescence intensity of the Renilla luciferase, yielding the luminescence intensity of each luciferase. The measurements were carried out multiple times for each luciferase, and the luminescence intensity was obtained as a mean value.

[2] = Measurement of light emission spectra of purified luciferase under various pH environments; type: biochemical; details: light emission spectra at various pH
Method: With use of LumiFlSpectroCapture (manufactured by ATTO Corporation) as an apparatus for measurement, to a solution of 0.1 M citric acid/0.1 M Na2HPO4 buffer (pH 5.5 to 8.0) containing 1 mM of D-luciferin, 2 mM of ATP and 4 mM of MgCl2 the purified enzyme was added at a final concentration of 1 μg/mL, and after 15 seconds of addition of the enzyme luminescence spectra was measured. The measurement results were illustrated in FIG. 1.
After that, each of thus-prepared genes (SEQ ID NOs: 38 and 39) was introduced into pRSET-B vector according to the same method as the Example 2. This vector was transformed to E. coli JM109 (DE3) strain to express the mutant luciferase. Subsequently, the mutant luciferase was purified from E. coli. In addition, under various pH environments, the light emission spectrum was measured according to the same method as the Example 2 from a light emitting reaction catalyzed by the mutant luciferase.

[3] = tested on: E. coli JM109 (DE3) strain; experiment: Temperature dependency of luminescence intensity: E. coli colonies heat treated at 55° C., CCD image (Example 7); type: cell-based, Escherichia coli; details: 55° C. for 1 hour, 0.5 mM D-luciferin spray
Method: Each of the wild type luciferase gene and two kinds of the mutant gene obtained in the Example 6 was introduced into pRSET-B vector and transformed to E. coli JM109 (DE3) strain to form a colony. Thus-obtained colony was cultured and applied on a LB agar medium to form again the colony for 24 hours. After that, it was subjected to the heat treatment at 55° C. for 1 hour and kept at room temperature for 1 hour. It was then sprayed with a liquid containing 0.5 mM D-luciferin and a photographic image thereof was taken for 1 min by using a CCD camera (trade name: DP70, manufactured by Olympus Corporation).

B1: P. pyralis luciferase: existing luciferase derived from Photinus pyralis (SEQ ID NO: 33) (protein, listed as Photinus pyralis)
chain: MEDAKNIKKGPAPFYPLEDGTAGEQLHKAMKRYALVPGTIAFTDAHIEVDITYAEYFEMSVRLAEAMKRYGLNTNHRIVVCSENSLQFFMPVLGALFIGVAVAPANDIYNERELLNSMGISQPTVVFVSKKGLQKILNVQKKLPIIQKIIIMDSKTDYQGFQSMYTFVTSHLPPGFNEYDFVPESFDRDKTIALIMNSSGSTGLPKGVALPHRTACVRFSHARDPIFGNQIIPDTAILSVVPFHHGFGMFTTLGYLICGFRVVLMYRFEEELFLRSLQDYKIQSALLVPTLFSFFAKSTLIDKYDLSNLHEIASGGAPLSKEVGEAVAKRFHLPGIRQGYGLTETTSAILITPEGDDKPGAVGKVVPFFEAKVVDLDTGKTLGVNQRGELCVRGPMIMSGYVNNPEATNALIDKDGWLHSGDIAYWDEDEHFFIVDRLKSLIKYKGYQVAPAELESILLQHPNIFDAGVAGLPDDDAGELPAAVVVLEHGKTMTEKEIVDYVASQVTTAKKLRGGVVFVDEVPKGLTGKLDARKIREILIKAKKGGKIAV
luminescence intensity (divided by luminescence intensity of Renilla luciferase internal control) (HeLa cell): 6.6

B2: mutant luciferase (N50D and I530R): L. accensa luciferase mutant with N50D and I530R, amino acid sequence SEQ ID NO: 2 (protein, listed as Lucidina accensa)
chain: MEEDKNILRGPAPFYPLEDGTAGEQLHRAMKRYALIPGTIAFTDAHAGVDITYSEYFEMACRLAESLKRYGLGLQHRIVVCSENSLQFFMPVVGALFIGVGVAPANDIYNERELLNSMTISQPTLVFCSRKGLQKILNVQKKLPVIQKIIILDTKEDYMGFQSMYSFVDSQLPVGFNEYDYVPDSFDRDQATALIMNSSGSTGLPKGVELNHTSVCVRFSHCRDPVYGNQIIPDTAILSVIPFHHGFGMFTTLGYLICGFRVVLMYRFEEELFLRSLQDYKIQSALLVPTLFSFFAKSTLIDKYDLSNLHEIASGGAPLAKEVGEAVAKRFNLRGIRQGYGLTETTSAVIITPEGDDKPGAVGKVVPFFSAKVVDLDTGKTLGVNQRGELCLKGPMIMKGYVNNPEATNALIDKDGWLHSGDISYWDEDGHFFIVDRLKSLIKYKGYQVPPAELESILLQHPFIFDAGVAGIPDDEAGELPAAVVVLEEGKTMTEKEIMDYVAGQVTTAKRLRGGVVFVDEVPKGLTGKRDARKIREILVKVKKTKSKL
luminescence intensity (divided by luminescence intensity of Renilla luciferase internal control) (HeLa cell): 26.5

B3: L. Biplagiata (literature sequence): luciferase derived from L. biplagiata, sequence disclosed in the literature (Oba et al. 2010), lysine at position 249 (protein, listed as Lucidina biplagiata)
chain: MEEDKNILRGPAAFYPLEDGTAGEQLHRAMKRYALIPGTIAFTDAHAGVNITYSEYFEMACRLAESLKRYGLGLQHRIVVCSENSLQFFMPVVGALFIGVGVAPANDIYNERELLNSMTISQPTLVFCSRKGLQKILNVQKKLPVIQKIIILDTKEDYMGFQSMYSFVDSQLPVGFNEYDYVPDSFDRDQATALIMNSSGSTGLPKGVELTHTSVCVRFSHCRDPVFGNQIIPDTAILSVIPFHHGFGKFTTLGYLICGFRVVLMYRFEEELFLRSLQDYKIQSALLVPTLFSFFAKSTLIDKYDLSNLHEIASGGAPLAKEVGEAVAKRFNLRGIRQGYGLTETTSAVIITPEGDDKPGAVGKVVPFFSAKVVDLDTGKTLGVNQRGELCLKGPMIMKGYVNNPEATNALIDKDGWLHSGDISYWDEDGHFFIVDRLKSLIKYKGYQVPPAELESILLQHPFIFDAGVAGIPDDEAGELPAAVVVLEEGKTMTEKEIMDYVAGQVTTAKRLRGGVVFVDEVPKGLTGKLDARKIREILVKAKKTKSKL
stability against protein degradation (bands on stained SDS-PAGE gel) [1]: stained in a smear shape in the region of 70 kDa or less
luminescence intensity, mean value (divided by Renilla luciferase intensity) (HeLa cells): 0.12

B4: mutant luciferase (F294Y, V323L, and E354V): L. accensa luciferase mutant with F294Y, V323L and E354V, amino acid sequence SEQ ID NO: 34 (protein, listed as Lucidina accensa)
chain: MEEDKNILRGPAPFYPLEDGTAGEQLHRAMKRYALIPGTIAFTDAHAGVNITYSEYFEMACRLAESLKRYGLGLQHRIVVCSENSLQFFMPVVGALFIGVGVAPANDIYNERELLNSMTISQPTLVFCSRKGLQKILNVQKKLPVIQKIIILDTKEDYMGFQSMYSFVDSQLPVGFNEYDYVPDSFDRDQATALIMNSSGSTGLPKGVELNHTSVCVRFSHCRDPVYGNQIIPDTAILSVIPFHHGFGMFTTLGYLICGFRVVLMYRFEEELFLRSLQDYKIQSALLVPTLFSYFAKSTLIDKYDLSNLHEIASGGAPLAKELGEAVAKRFNLRGIRQGYGLTETTSAVIITPVGDDKPGAVGKVVPFFSAKVVDLDTGKTLGVNQRGELCLKGPMIMKGYVNNPEATNALIDKDGWLHSGDISYWDEDGHFFIVDRLKSLIKYKGYQVPPAELESILLQHPFIFDAGVAGIPDDEAGELPAAVVVLEEGKTMTEKEIMDYVAGQVTTAKRLRGGVVFVDEVPKGLTGKIDARKIREILVKVKKTKSKL
pH environment giving the highest luminescence intensity [2]: 7.4 pH
light emission compared to the wild type luciferase at 55° C. [3]: stronger light emission; also recorded: higher luminescence intensity
